According to patent US20050112698A1 (Bayer, published 2005):
One block for each binder: values may come before it.

How the values were obtained:
human Stem Cell Factor [1] = biological target: T1, human Stem Cell Factor (human, UniProt P21583 26-189); test: cell-based or functional assay
human Stem Cell Factor [2] = biological target: T1, human Stem Cell Factor; test: cell-based or functional assay; remark: listed apart in the source
Cynomolgus Monkey SCF [3] = biological target: T2, Cynomolgus Monkey SCF (cynomolgus monkey, UniProt A0A7N9CAX5 26-189); test: cell-based or functional assay
human Stem Cell Factor [4] = biological target: T1, human Stem Cell Factor; test: BIAcore, Affinity Estimation, Fab
Cynomolgus Monkey SCF [5] = biological target: T2, Cynomolgus Monkey SCF; test: SPR BIAcore 2000, Fab over 185 RU immobilized cSCF
Experimental: (§1) Affinity measurements were carried out on a BIAcore 2000 (Biacore) at 25° C. […] Purified Fab's were diluted in HBS-EP running buffer at concentrations ranging from 1.95 to 125 nM. A volume of 100 μl was injected using a flow rate of 50 μl/min in Kinject mode. After a 10 min dissociation, 50 μl of 10 mM Glycine, pH 2.5 and 25 μl of 10 mM Glycine, pH 2.0 was injected using a flow rate of 100 μl/min. All samples were run in duplicate. […] Cynomologus monkey SCF was diluted in HBS-EP running buffer at concentrations ranging from 15.6 to 500 nM and 150 μl injected at a flow rate of 50 μl/min. After a 15 min dissociation, 50 μl of 10 mM Glycine, pH 2.5, and 25 μl of 10 mM Glycine, pH 1.5 was injected using a flow rate of 100 μl/min. All samples were run in duplicate. The data was globally fit to the 1 to 1 binding model using BIAevaluation software. The raw experimental data were corrected for instrumental and bulk solvent artifacts by double referencing using both activated and blocked surfaces as controls.
(§2) To evaluate the binding properties of anti-SCF Fabs selected from affinity optimization of the CDR3 loop with SCF, the real time interaction was measured using surface plasmon resonance with the BIAcore 2000. […] The improvement in Kd's are primarily governed by a substantial reduction in the off-rate (koff). […] The affinity constants for Fab binding to human SCF were slightly lower than those Kd's for cynomologus monkey SCF. The panning design, with lower antigen concentrations and extensive washing steps, favors off-rate selection. The affinity of the A2-G8 clone in an IgG vector was measured using the IgG immobilized to the surface of the CM5 chip.

Cynomolgus Monkey SCF [6] = biological target: T2, Cynomolgus Monkey SCF; test: competition ELISA: cSCF binding to coated human SCFR, Fab 3.1 µg/ml
Experimental: The extracts containing Fab were also tested for the ability to inhibit SCF binding to the SCF receptor. ELISA plates were coated overnight with 2 μg/ml human SCFR (R&D Systems, Minneapolis, Minn.) in PBS at 4° C. After washing with TBS-T, the plate was blocked with 5 mg/ml BSA in PBS. The extract was diluted 1/5 in PBS buffer containing 12.5 ng/ml cSCF and 1 mg/ml BSA. After a 1 hr incubation at room temperature, 100 μl was added to the blocked ELISA plate and incubated an additional hour. The plate was washed 5 times with TBS-T, and 100 μl of a 0.4 μg/ml solution of anti-SCF (R&D Systems) in 1 mg/ml BSA in PBS was added. After 1 hour the plate was washed and incubated with anti-Mouse-HRP (Sigma, St. Louis, Mo.). The plate was developed with BM Blue POD substrate (Roche Diagnostics, Chicago, Ill.) and read at 370 nm.
(§3) TABLE 12 Sequences of the CDR3 Vk1 Region of Selected Antibody Clones with Comparison of koff and SCF Inhibitory Activity The off-rates were determined using a high density surface CM5 chip (5000 RU of immobilized cSCF) on BIAcore and are shown with comparison to the original A2-G8 clone. […] The IC₅₀ in the TF-1 proliferation assay was based on an average of two assays with the exception of the A2-G8-IgG (n = 5).

Cynomolgus Monkey SCF [7] = biological target: T2, Cynomolgus Monkey SCF; test: SPR BIAcore, initial screening (high RU of immobilized antigen, low flow rate)
Experimental: Analysis of Fab binding to cSCF was performed by surface plasmon resonance using a BIAcore 2000 (Biacore, Piscataway, N.J.), according to the manufacturer's instructions and a CM5 chip (Biacore) coated with cSCF. For amine coupling, a research grade CM5 chip was activated using the standard NHS/EDC procedure. Cynomologus monkey SCF was diluted to 20 μg/ml in 10 mM NaAcetate, pH 5.0, and a total of 5000 RU's were coupled to channel 2 of the sensor surface. The remaining active sites were quenched by the addition of 1M ethanolamine, pH 8.0. Channel 1 was subjected to the coupling procedure in the absence of protein and was used as a reference surface. […] The koff was calculated from a single concentration of Fab using BIAevaluation software (Biacore).
The koffrates determined using kinetic conditions (low RU's of immobilized antigen and high flow rates) on the BIAcore gave higher values than those koff's determined under non-kinetic conditions used during the initial screening procedure (high RU's of immobilized antigen and low flow rates). This is especially apparent for the A2-G8 Fab, where a koff of 6×10⁻³ sec⁻¹ was measured during the initial screening process, compared to a koff value of 1×10⁻² sec⁻¹ measured using kinetic parameters. […] The koff rates determined in the initial screening process, therefore, should not be considered absolute values but a ranking with other Fabs.

Cynomolgus Monkey SCF [8] = biological target: T2, Cynomolgus Monkey SCF; test: SPR BIAcore, 5000 RU immobilized cSCF, off-rate ranking; high density chip (5000 RU cSCF), off-rate ranking
Experimental: as §3
Analysis of Fab binding to cSCF was performed by surface plasmon resonance using a BIAcore 2000 (Biacore, Piscataway, N.J.), according to the manufacturer's instructions and a CM5 chip (Biacore) coated with cSCF. For amine coupling, a research grade CM5 chip was activated using the standard NHS/EDC procedure. Cynomologus monkey SCF was diluted to 20 μg/ml in 10 mM NaAcetate, pH 5.0, and a total of 5000 RU's were coupled to channel 2 of the sensor surface. The remaining active sites were quenched by the addition of 1M ethanolamine, pH 8.0. Channel 1 was subjected to the coupling procedure in the absence of protein and was used as a reference surface. Extracts were diluted 1/5 in HBS-EP running buffer and injected for 2 min using a flow rate of 20 μl/min. The surface was regenerated by two consecutive injections of 25 μl, 10 mM glycine, pH 2.5, using a flow rate of 100 μl/min. The koff was calculated from a single concentration of Fab using BIAevaluation software (Biacore).

human Stem Cell Factor [9] = biological target: T1, human Stem Cell Factor; test: cell-based or functional assay; remark: listed apart in the source
Cynomolgus Monkey SCF [10] = biological target: T2, Cynomolgus Monkey SCF; test: SPR BIAcore 2000, cSCF over 550 RU immobilized IgG
Experimental: as §1, §2

Cynomolgus Monkey SCF [11] = biological target: T2, Cynomolgus Monkey SCF; test: SPR BIAcore, off-rate (legend: 5000 RU immobilized cSCF); Table 12 off-rate list (legend: immobilized cSCF)
human Stem Cell Factor [12] = biological target: T1, human Stem Cell Factor; test: cell-based or functional assay; remark: listed apart in the source
Cynomolgus Monkey SCF [13] = biological target: T2, Cynomolgus Monkey SCF; test: cell-based or functional assay; remark: listed apart in the source
rat Stem Cell Factor = biological target: T3, rat Stem Cell Factor (rat, UniProt P21581 26-189, limits assumed); test: cell-based or functional assay
T3 sequence (looked up): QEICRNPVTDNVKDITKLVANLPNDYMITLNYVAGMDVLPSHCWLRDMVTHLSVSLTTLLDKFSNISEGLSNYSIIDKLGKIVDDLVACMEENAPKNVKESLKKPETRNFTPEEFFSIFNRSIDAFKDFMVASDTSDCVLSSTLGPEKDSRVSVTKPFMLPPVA

human Stem Cell Factor [14] = biological target: T1, human Stem Cell Factor; test: cell-based or functional assay; remark: listed apart in the source
human Stem Cell Factor [15] = biological target: T1, human Stem Cell Factor; test: BIAcore, Fab on immobilized SCF

T1 sequence (P21583 other isoform, or with tags, fused parts or gaps limits assumed): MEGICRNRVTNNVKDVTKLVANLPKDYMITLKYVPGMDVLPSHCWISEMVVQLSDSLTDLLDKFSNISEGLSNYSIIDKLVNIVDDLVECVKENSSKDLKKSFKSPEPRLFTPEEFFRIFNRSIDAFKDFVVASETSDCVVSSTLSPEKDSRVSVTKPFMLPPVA

- TF-1 Fab assay IC50 (human Stem Cell Factor [1]): 5 µg/mL
- IC50 TF-1 huSCF Assay (human Stem Cell Factor [2]): 2.36 µg/mL
- IC50 TF-1 cynoSCF Assay (Cynomolgus Monkey SCF [3]): 5.7 µg/mL
- Kd (human Stem Cell Factor [4]): 9 nM
- Kd (Cynomolgus Monkey SCF [5]): 25.1 nM
- koff (Cynomolgus Monkey SCF [5]): 0.0106 s⁻¹
- kon (Cynomolgus Monkey SCF [5]): 420000 M⁻¹ s⁻¹
- % Inhibition SCF Binding ELISA Assay (Cynomolgus Monkey SCF [6]): 30%
- koff (Cynomolgus Monkey SCF [7]): 0.006 s⁻¹
- koff (Cynomolgus Monkey SCF [8]): 0.00306 s⁻¹
B1: Fab A2-G8 (Fab, V domains shown)
VH: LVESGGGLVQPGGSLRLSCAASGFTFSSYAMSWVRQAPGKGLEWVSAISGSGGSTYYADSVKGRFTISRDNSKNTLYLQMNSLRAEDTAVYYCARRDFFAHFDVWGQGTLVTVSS
VL: QMTQSPSSLSASVGDRVTITCRASQGIRGYLGWYQQKPGKAPKLLIYSASSLQSGVPSRFSGSGSGTDFTLTISSLQPEDFATYYCQQYSGMPYTFGQGTKVEIKR
notes: Fab format; also called anti-SCF Fab A2-G8; parent Fab A2-G8

- TF-1 IgG assay IC50 (human Stem Cell Factor [1]): 1 µg/mL
- IC50, TF-1 (SCF-induced TF-1 proliferation) (human Stem Cell Factor [9]): 1 µg/mL
- IC50 TF-1 huSCF Assay (human Stem Cell Factor [2]): 2.32 µg/mL
- IC50 TF-1 cynoSCF Assay (Cynomolgus Monkey SCF [3]): 11.2 µg/mL
- Kd (Cynomolgus Monkey SCF [10]): 35.8 nM
- koff (Cynomolgus Monkey SCF [10]): 0.0013 s⁻¹
- kon (Cynomolgus Monkey SCF [10]): 36300 M⁻¹ s⁻¹
- koff (Cynomolgus Monkey SCF [11]): 0.0013 s⁻¹
B2: A2-G8 IgG (antibody, V domains shown)
VH: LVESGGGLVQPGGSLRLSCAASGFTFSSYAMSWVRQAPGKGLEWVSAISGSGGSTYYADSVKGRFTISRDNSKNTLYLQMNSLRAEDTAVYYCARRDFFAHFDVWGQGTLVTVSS
VL: B1 VL
notes: Human IgG1 kappa expressed in HKB11 cells; also called A2-G8 Mab; SCF antibody A2-G8
- Eosinophil IgG assay IC50 (human eosinophil survival) (human Stem Cell Factor [1]): 1.5 µg/mL
- IC50, Cyno Eos (SCF-stimulated cyno eosinophil survival) (human Stem Cell Factor [9]): 3 µg/mL
- IC50, Human Eos (SCF-stimulated human eosinophil survival) (human Stem Cell Factor [9]): 1.5 µg/mL

- percent inhibition of SCF-induced TF-1 proliferation at 200 ug/ml Fab (human Stem Cell Factor [12]): > 100%
- IC50, inhibition of cyno SCF in TF-1 proliferation (Cynomolgus Monkey SCF [13]): 20 to 60 µg/mL
- percent inhibition of SCF-induced TF-1 proliferation at 200 ug/ml Fab (Cynomolgus Monkey SCF [13]): > 100%
- IC50, inhibition of rat SCF in TF-1 proliferation (rat Stem Cell Factor): 20 to 60 µg/mL
- percent inhibition of SCF-induced TF-1 proliferation at 200 ug/ml Fab (rat Stem Cell Factor): > 100%
- Efficacy IC50 (TF-1 proliferation assay, Fab) (human Stem Cell Factor [14]): 29 µg/mL
- Kd (human Stem Cell Factor [15]): 65.7 nM
B3: Fab A2 (Fab, V domains shown)
VH: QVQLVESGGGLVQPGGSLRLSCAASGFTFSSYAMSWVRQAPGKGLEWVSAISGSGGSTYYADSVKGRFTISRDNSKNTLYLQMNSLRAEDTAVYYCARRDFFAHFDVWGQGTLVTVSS
VL: DIQMTQSPSSLSASVGDRVTITCRASQGISSYLAWYQQKPGKAPKLLIYAASSLQSGVPSRFSGSGSGTDFTLTISSLQPEDFATYYCQQYSGMPYTFGQGTKVEIK
notes: HuCAL Fab and parent of the A2-xx clones; It carries FLAG and Strep tags
